Results from the Human Domainome abundance scans (Beltran et al. 2025).
± gives the uncertainty stated by the source.

B1: SWI/SNF-related matrix-associated actin-dependent regulator of chromatin subfamily B member 1, residues 181 to 248; numbered along this chain, Q12824 (parent)
chain: SQPEVLVPIRLDMEIDGQKLRDAFTWNMNEKLMTPEMFSEILCDDLDLNPLTFVPAIASAIRQQIESY
B2: Connector enhancer of kinase suppressor of ras 2, residues 9 to 71; numbered along this chain, Q8WXI2 (parent)
chain: SKWSPSQVVDWMKGLDDCLQQYIKNFEREKISGDQLLRITHQELEDLGVSRIGHQELILEAVD

Variants of: B1
Experiment: abundance fitness (aPCA) (normalised: wild type 0, dead -1); higher = more abundant; growth selection in yeast, the domain comes from the species named
Details: Homo sapiens

SQPEVLVPIRLDMEIDGQKLRDAFTWNMNEKLMTPEMFSEILCDDLDLNPLTFVPAIASAIRQQIESL [Y68L] and SQPEVLVPIRFDMEIDGQKLRDAFTWNMNEKLMTPEMFSEILCDDLDLNPLTFVPAIASAIRQQIESY [L11F] are within error of each other in abundance fitness: -0.536 ± 0.15 for the first, -0.215 ± 0.18 for the second.

Going from SQPEVLVPIRLDMEIDGQKLRDAFTWNMNEKLMTPEMFSEILCDDRDLNPLTFVPAIASAIRQQIESY [L46R] to SQPEVLVPIRLDMEIDGQKLRDAFTWNMNEKLMCPEMFSEILCDDLDLNPLTFVPAIASAIRQQIESY [T34C], the abundance fitness falls from 0.161 ± 0.046 to -0.831 ± 0.23.

Going from SQPEVLVPIRLDMEIDGQKLRDAFTWNMNEKLMTPEMFSEILCDDLDLNPLTFVPAIASAIRKQIESY [Q63K] to SQPEVLVPIRLDMEIDGQKLRDAFTWNMNEKLMTPEMFSEILCDDLDLNPLTFVPAIASAIRMQIESY [Q63M], the abundance fitness falls from -0.067 ± 0.073 to -0.257 ± 0.084.

Compared with SQPEVLVPIRLDMEIDGQKLRDAFTWNMNEKLMTPEMFSEILCDDLLLNPLTFVPAIASAIRQQIESY [D47L], SQPEVLVPIRLDMEIDGQKLRDAITWNMNEKLMTPEMFSEILCDDLDLNPLTFVPAIASAIRQQIESY [F24I] is higher in abundance fitness: -0.425 ± 0.056 for the first, -0.156 ± 0.15 for the second.

Going from SQPEVLVPIRLDMDIDGQKLRDAFTWNMNEKLMTPEMFSEILCDDLDLNPLTFVPAIASAIRQQIESY [E14D] to SQPEVLVPIRLDMEIDGQKLRDAFTWNMNEKLMTPEMFSEILCLDLDLNPLTFVPAIASAIRQQIESY [D44L], the abundance fitness falls from 0.026 ± 0.15 to -0.251 ± 0.11.

SQPEVLVPIRLDMEIDGQKLRDAFTWNMNEKLMTPEMFSEILCDDLDENPLTFVPAIASAIRQQIESY [L48E] and SQPEVLVPIRLDMEIDGQKLRDAFTWNMNEKLMTPEMFSEILCDDLDLNPLCFVPAIASAIRQQIESY [T52C] are within error of each other in abundance fitness: -0.678 ± 0.16 for the first, -0.31 ± 0.24 for the second.

First: SQPEVLVPIRLDMEIDGQKLRDAFTWNMNEKLMTPEMFSEILCDDLPLNPLTFVPAIASAIRQQIESY [D47P]
Second: SQPEVLVPIRLDMEIDGQKLRDAFTWNMNEKLMTPEMFSEILCDDLDLNPLTFVPAIASAIRQQIESQ [Y68Q]
The abundance fitness of the first is lower: -0.799 ± 0.16 for the first, -0.185 ± 0.086 for the second.

SQPEVLVPIRLDMEIDGQKLRDAFTWNMNEKLMTPEMFSEIWCDDLDLNPLTFVPAIASAIRQQIESY [L42W] and SQPEVLVPIRLDMEIDGQKLRDAFTWNMNEKLMTPEMFSEILSDDLDLNPLTFVPAIASAIRQQIESY [C43S] are within error of each other in abundance fitness: -0.883 ± 0.34 for the first, -0.79 ± 0.082 for the second.

SQPEVLVPIRLDMEIDGQKLRDAFTWNMNEKLMTPEMFSEILCDDLNLNPLTFVPAIASAIRQQIESY [D47N] and SQPEVLVPIRLDMEIDGQKLRDAFTWNMNEKLMTPEMFSEILCDDLDLNPLTFVPAIASAIRQQIEPY [S67P] are within error of each other in abundance fitness: -0.107 ± 0.069 for the first, -0.055 ± 0.045 for the second.

Compared with SQPEVLVPIRLDMEIDGQKLRDAFTWNMNEKLMTPEMFSEILQDDLDLNPLTFVPAIASAIRQQIESY [C43Q], SQPEVLVVIRLDMEIDGQKLRDAFTWNMNEKLMTPEMFSEILCDDLDLNPLTFVPAIASAIRQQIESY [P8V] is higher in abundance fitness: -0.72 ± 0.11 for the first, -0.315 ± 0.074 for the second.

First: SQPEVLVPIRLDMEIDGQKLRDAFTWNMNEKLMTPEMFSEILCDDEDLNPLTFVPAIASAIRQQIESY [L46E]
Second: SQPEVLVPIRLDMEIDGQKLRDAFTWNMNEKLWTPEMFSEILCDDLDLNPLTFVPAIASAIRQQIESY [M33W]
The abundance fitness of the first is higher: -0.204 ± 0.13 for the first, -0.488 ± 0.068 for the second.

SQPEVLVPIRLDMEIDGQKLRDPFTWNMNEKLMTPEMFSEILCDDLDLNPLTFVPAIASAIRQQIESY [A23P] and SQPEVLVPIRLDMEIDGQKLRDAFTWNMNEKLMTPEMFSEILCDDLDLNGLTFVPAIASAIRQQIESY [P50G] are within error of each other in abundance fitness: -0.599 ± 0.28 for the first, -0.77 ± 0.047 for the second.

First: SQPEVLVPIRLDMEIDGQKLRDAFTWNMNEKLMTPEMSSEILCDDLDLNPLTFVPAIASAIRQQIESY [F38S]
Second: SQPEDLVPIRLDMEIDGQKLRDAFTWNMNEKLMTPEMFSEILCDDLDLNPLTFVPAIASAIRQQIESY [V5D]
The abundance fitness of the first is lower: -0.809 ± 0.24 for the first, 0.045 ± 0.095 for the second.

First: SQPEVLVPIRLDMEIDVQKLRDAFTWNMNEKLMTPEMFSEILCDDLDLNPLTFVPAIASAIRQQIESY [G17V]
Second: SQWEVLVPIRLDMEIDGQKLRDAFTWNMNEKLMTPEMFSEILCDDLDLNPLTFVPAIASAIRQQIESY [P3W]
The abundance fitness of the first is lower: -1 ± 0.13 for the first, -0.186 ± 0.073 for the second.

SQPEVLVPIRLDMEIDGQKLRDAFTWNMNEKLMTPEMFSEILCDDLDLNPLTFVPAVASAIRQQIESY [I57V] and SQPEVLVPIRLDMEIDGQKLRDAFTWNMNEKLMTPEMFSEILCDHLDLNPLTFVPAIASAIRQQIESY [D45H] are within error of each other in abundance fitness: -0.177 ± 0.056 for the first, -0.143 ± 0.39 for the second.

Compared with SQPEVLVPDRLDMEIDGQKLRDAFTWNMNEKLMTPEMFSEILCDDLDLNPLTFVPAIASAIRQQIESY [I9D], SQPEVLVPIRLDMEIDGQKLRDAFTWNMNEKTMTPEMFSEILCDDLDLNPLTFVPAIASAIRQQIESY [L32T] is higher in abundance fitness: -0.74 ± 0.2 for the first, 0.134 ± 0.055 for the second.

SQPEVLVPIRLDMEIDGQKLRDAFTWNMNEKLMTPEMFSWILCDDLDLNPLTFVPAIASAIRQQIESY [E40W] and SQPEVLVPIRLDMEIDGQKLRDAFTWNMNEKLMTPEMFSEILCDDLDLNPLTFVPAIASAILQQIESY [R62L] are within error of each other in abundance fitness: -0.511 ± 0.06 for the first, -0.553 ± 0.075 for the second.

First: SQPEVLVPILLDMEIDGQKLRDAFTWNMNEKLMTPEMFSEILCDDLDLNPLTFVPAIASAIRQQIESY [R10L]
Second: SQPECLVPIRLDMEIDGQKLRDAFTWNMNEKLMTPEMFSEILCDDLDLNPLTFVPAIASAIRQQIESY [V5C]
The abundance fitness of the first is lower: -0.193 ± 0.11 for the first, 0.116 ± 0.077 for the second.

SQPEVLDPIRLDMEIDGQKLRDAFTWNMNEKLMTPEMFSEILCDDLDLNPLTFVPAIASAIRQQIESY [V7D] and SQPEVLVPIRLDMEIDGQKLRDAFTWNMNEKLMTPEMFSEILCDDLDLNPLTFVPAIASAIRQQGESY [I65G] are within error of each other in abundance fitness: -0.749 ± 0.23 for the first, -1.05 ± 0.23 for the second.

Compared with SQPELLVPIRLDMEIDGQKLRDAFTWNMNEKLMTPEMFSEILCDDLDLNPLTFVPAIASAIRQQIESY [V5L], SQPEVLVPIRLDMEIDGQKLRDAFTWNMNEKLMTPEMFSEIGCDDLDLNPLTFVPAIASAIRQQIESY [L42G] is lower in abundance fitness: -0.009 ± 0.08 for the first, -0.909 ± 0.1 for the second.

SQPEVLVPIRLDMEIDGQKLRDAFTWNMNEKLMTPEMFSEIKCDDLDLNPLTFVPAIASAIRQQIESY [L42K] and SQPEVLVPIRLDMEIDGQKLRDAFTWNMNEKLMTPEMFSEILCDDLDLNPLTFVPAIASAIRDQIESY [Q63D] are within error of each other in abundance fitness: -0.106 ± 0.072 for the first, -0.019 ± 0.082 for the second.

Going from SQPEVLVPIRLDMEIDGQKLRDAFTWNMNEKLMTPEMFSEILCDDLDSNPLTFVPAIASAIRQQIESY [L48S] to SQPEVLVPIRLDIEIDGQKLRDAFTWNMNEKLMTPEMFSEILCDDLDLNPLTFVPAIASAIRQQIESY [M13I], the abundance fitness rises from -0.659 ± 0.072 to -0.149 ± 0.29.

SQPEVLVPIRLDMEIDGQKLRDAFTWNMNEKLMTPEMFSEILCDDLDLNPHTFVPAIASAIRQQIESY [L51H] and SQPEVLVPIRLDMEIDGQKLRDAFTWNMNEKLMTPEMFSEILCDDLDLNPLTFVPAIASAIRQQIVSY [E66V] are within error of each other in abundance fitness: 0.002 ± 0.083 for the first, -0.142 ± 0.099 for the second.

SQPEVLVPIRLDMEIDGQKLRDAFTWNMNEKLMTPEMFSEILCDDLDLTPLTFVPAIASAIRQQIESY [N49T] and SQPEVLVPIRLDMEIDGQKLRDAFTWNMNEKLMTPEMFREILCDDLDLNPLTFVPAIASAIRQQIESY [S39R] are within error of each other in abundance fitness: -0.874 ± 0.076 for the first, -0.797 ± 0.36 for the second.

SQPEVLVPIRLDMEIDGQKLRDAFTWNMNEKLMTPEMFSEILCDDLDLNPLSFVPAIASAIRQQIESY [T52S] and SQPGVLVPIRLDMEIDGQKLRDAFTWNMNEKLMTPEMFSEILCDDLDLNPLTFVPAIASAIRQQIESY [E4G] are within error of each other in abundance fitness: -0.14 ± 0.17 for the first, -0.354 ± 0.17 for the second.

SQPEVLVPIRLSMEIDGQKLRDAFTWNMNEKLMTPEMFSEILCDDLDLNPLTFVPAIASAIRQQIESY [D12S] and SQPEVLVPIRLDMEIDGQKLRDAFTWNMNEKLMTPEMFSEILCDDLDLNPLTFVPAIASGIRQQIESY [A60G] are within error of each other in abundance fitness: -0.474 ± 0.21 for the first, -0.528 ± 0.078 for the second.

Variants of: B2
Experiment: as above
Details: Homo sapiens

Going from S1A to S1C, the abundance fitness rises from -0.2 ± 0.046 to -0.07 ± 0.048.

S1D and S1E are within error of each other in abundance fitness: -0.028 ± 0.059 for the first, -0.283 ± 0.31 for the second.

S1F and S1G are within error of each other in abundance fitness: -0.13 ± 0.058 for the first, -0.134 ± 0.052 for the second.

S1I and S1K are within error of each other in abundance fitness: 0.038 ± 0.057 for the first, 0.015 ± 0.039 for the second.

Compared with S1L, S1N is higher in abundance fitness: -0.154 ± 0.036 for the first, 0.063 ± 0.053 for the second.

Going from S1P to S1T, the abundance fitness rises from -0.653 ± 0.068 to -0.198 ± 0.04.

Going from S1V to S1W, the abundance fitness falls from -0.015 ± 0.056 to -0.22 ± 0.045.

Going from K2A to K2C, the abundance fitness rises from -0.239 ± 0.043 to -0.084 ± 0.029.

Going from K2D to K2E, the abundance fitness falls from -0.053 ± 0.033 to -0.29 ± 0.14.

K2F and K2G are within error of each other in abundance fitness: -0.025 ± 0.018 for the first, -0.059 ± 0.041 for the second.

Compared with K2H, K2I is lower in abundance fitness: 0.047 ± 0.047 for the first, -0.09 ± 0.027 for the second.

K2L and K2M are within error of each other in abundance fitness: -0.041 ± 0.038 for the first, -0.121 ± 0.11 for the second.

Going from K2N to K2P, the abundance fitness falls from -0.049 ± 0.034 to -0.167 ± 0.073.

Going from K2R to K2S, the abundance fitness rises from -0.325 ± 0.052 to -0.003 ± 0.025.

Going from K2T to K2V, the abundance fitness falls from 0.015 ± 0.03 to -0.133 ± 0.034.

K2W gave an abundance fitness of -0.291 ± 0.079.
